± gives the standard deviation of the averaged measurements.
Experiment: total protein half-life in vivo (active degradation + dilution); higher = more stable protein
[1] = E. coli NCM3722 delta-clpP delta-lon delta-hslV, growth: N-lim chemostat, doubling time 6 h
[2] = E. coli NCM3722 delta-hslV, growth: N-lim chemostat, doubling time 6 h
[3] = E. coli NCM3722 delta-lon, growth: N-lim chemostat, doubling time 6 h
[4] = E. coli NCM3722 delta-smpB, growth: N-lim chemostat, doubling time 6 h
[5] = wild type E. coli NCM3722, growth: C-lim chemostat, doubling time 3 h
[6] = wild type E. coli NCM3722, growth: C-lim chemostat, doubling time 6 h
[7] = wild type E. coli NCM3722, growth: C-lim chemostat, doubling time 12 h
[8] = wild type E. coli NCM3722, growth: N-lim chemostat, doubling time 6 h
[9] = wild type E. coli NCM3722, growth: N-lim chemostat, doubling time 12 h
[10] = wild type E. coli NCM3722, growth: P-lim chemostat, doubling time 6 h
[11] = wild type E. coli NCM3722, growth: P-lim chemostat, doubling time 12 h
[12] = E. coli NCM3722 delta-clpP, growth: N-lim chemostat, doubling time 6 h

For “MRADKSLSPFEIRVYRHYRIVHGTRVALAFLLTFLIIRLFTIPESTWPLVTMVVIMGPISFWGNVVPRAFERIGGTVLGSILGLIALQLELISLPLMLVWCAAAMFLCGWLALGKKPYQGLLIGVTLAIVVGSPTGEIDTALWRSGDVILGSLLAMLFTGIWPQRAFIHWRIQLAKSLTEYNRVYQSAFSPNLLERPRLESHLQKLLTDAVKMRGLIAPASKETRIPKSIYEGIQTINRNLVCMLELQINAYWATRPSHFVLLNAQKLRDTQHMMQQILLSLVHALYEGNPQPVFANTEKLNDAVEELRQLLNNHHDLKVVETPIYGYVWLNMETAHQLELLSNLICRALRK”, the “total protein half-life in vivo” value [1] was 6.005 ± 0.0077 h, the “total protein half-life in vivo” value [2] was 5.415 ± 0.036 h and the “total protein half-life in vivo” value [3] was 6.43 ± 0.51 h. The “total protein half-life in vivo” value [4] was 5.53 ± 1.8 h, the “total protein half-life in vivo” value [5] was 3.27 ± 0.35 h and the “total protein half-life in vivo” value [6] was 5.4 ± 0.19 h. The “total protein half-life in vivo” value [7] was 11.5 ± 0.28 h, the “total protein half-life in vivo” value [8] was 5.61 ± 0.075 h and the “total protein half-life in vivo” value [9] was 7.75 ± 6 h. For the same sequence, the “total protein half-life in vivo” value [10] was 4.76 ± 2.1 h and the “total protein half-life in vivo” value [11] was 10.6 ± 3.9 h.
For “MRAKLLGIVLTTPIAISSFASTETLSFTPDNINADISLGTLSGKTKERVYLAEEGGRKVSQLDWKFNNAAIIKGAINWDLMPQISIGAAGWTTLGSRGGNMVDQDWMDSSNPGTWTDESRHPDTQLNYANEFDLNIKGWLLNEPNYRLGLMAGYQESRYSFTARGGSYIYSSEEGFRDDIGSFPNGERAIGYKQRFKMPYIGLTGSYRYEDFELGGTFKYSGWVESSDNDEHYDPGKRITYRSKVKDQNYYSVAVNAGYYVTPNAKVYVEGAWNRVTNKKGNTSLYDHNNNTSDYSKNGAGIENYNFITTAGLKYTF”, the “total protein half-life in vivo” value [12] was 6.57 ± 0.46 h, the “total protein half-life in vivo” value [2] was 6.305 ± 0.013 h and the “total protein half-life in vivo” value [3] was 6.712 ± 0.042 h. For the same sequence, the “total protein half-life in vivo” value [4] was 5.81 ± 0.35 h, the “total protein half-life in vivo” value [5] was 3.21 ± 0.091 h and the “total protein half-life in vivo” value [6] was 6.17 ± 0.45 h. The “total protein half-life in vivo” value [7] was 11.5 ± 0.18 h, the “total protein half-life in vivo” value [8] was 6.05 ± 0.22 h and the “total protein half-life in vivo” value [9] was 12.2 ± 2.6 h. For the same sequence, the “total protein half-life in vivo” value [10] was 6.51 ± 0.55 h and the “total protein half-life in vivo” value [11] was 13.498 ± 0.0072 h.
With “MRALPICLVALMLSGCSMLSRSPVEPVQSTAPQPKAEPAKPKAPRATPVRIYTNAEELVGKPFRDLGEVSGDSCQASNQDSPPSIPTARKRMQINASKMKANAVLLHSCEVTSGTPGCYRQAVCIGSALNITAK” the “total protein half-life in vivo” value [1] was 5.47 ± 0.43 h, the “total protein half-life in vivo” value [12] was 5.57 ± 0.38 h and the “total protein half-life in vivo” value [2] was 6.58 ± 0.75 h. For the same sequence, the “total protein half-life in vivo” value [3] was 6.404 ± 0.011 h, the “total protein half-life in vivo” value [4] was 5.51 ± 0.33 h and the “total protein half-life in vivo” value [5] was 2.89 ± 0.62 h. The “total protein half-life in vivo” value [6] was 5.65 ± 0.51 h, the “total protein half-life in vivo” value [7] was 12.4 ± 3.6 h and the “total protein half-life in vivo” value [8] was 5.65 ± 0.16 h. The “total protein half-life in vivo” value [9] was 14.7 ± 1.2 h, the “total protein half-life in vivo” value [10] was 6.5 ± 1.4 h and the “total protein half-life in vivo” value [11] was 13.4 ± 0.85 h.
In the case of “MRCKGFLFDLDGTLVDSLPAVERAWSNWARRHGLAPEEVLAFIHGKQAITSLRHFMAGKSEADIAAEFTRLEHIEATETEGITALPGAIALLSHLNKAGIPWAIVTSGSMPVARARHKIAGLPAPEVFVTAERVKRGKPEPDAYLLGAQLLGLAPQECVVVEDAPAGVLSGLAAGCHVIAVNAPADTPRLNEVDLVLHSLEQITVTKQPNGDVIIQ”, the “total protein half-life in vivo” value [1] is reported as 4.84 ± 0.48 h, the “total protein half-life in vivo” value [12] is reported as 5.45 ± 1.7 h and the “total protein half-life in vivo” value [2] is reported as 4.91 ± 0.61 h. The “total protein half-life in vivo” value [3] was 5.46 ± 0.45 h, the “total protein half-life in vivo” value [4] was 3.992 ± 0.0097 h and the “total protein half-life in vivo” value [5] was 3.06 ± 0.1 h. For the same sequence, the “total protein half-life in vivo” value [6] was 6.07 ± 0.31 h, the “total protein half-life in vivo” value [7] was 10.1 ± 0.43 h and the “total protein half-life in vivo” value [8] was 4.54 ± 0.39 h. The “total protein half-life in vivo” value [9] was 6.8 ± 0.18 h, the “total protein half-life in vivo” value [10] was 5.77 ± 0.43 h and the “total protein half-life in vivo” value [11] was 11.4 ± 0.17 h.
In the case of “MRFLLGVLMLMISGSALATIDVLQFKDEAQEQQFRQLTEELRCPKCQNNSIADSNSMIATDLRQKVYELMQEGKSKKEIVDYMVARYGNFVTYDPPLTPLTVLLWVLPVVAIGIGGWVIYARSRRRVRVVPEAFPEQSVPEGKRAGYVVYLPGIVVALIVAGVSYYQTGNYQQVKIWQQATAQAPALLDRALDPKADPLNEEEMSRLALGMRTQLQKNPGDIEGWIMLGRVGMALGNASIATDAYATAYRLDPKNSDAALGYAEALTRSSDPNDNRLGGELLRQLVRTDHSNIRVLSMYAFNAFEQQRFGEAVAAWEMMLKLLPANDTRRAVIERSIAQAMQHLSPQESK [P0ABM9]”, the “total protein half-life in vivo” value [1] is reported as 3.85 ± 0.42 h, the “total protein half-life in vivo” value [2] is reported as 3.5 ± 0.5 h and the “total protein half-life in vivo” value [4] is reported as 3.32 ± 0.057 h. The “total protein half-life in vivo” value [5] was 3.26 ± 0.15 h, the “total protein half-life in vivo” value [7] was 9.451 ± 0.016 h and the “total protein half-life in vivo” value [8] was 3.8 ± 0.21 h. For the same sequence, the “total protein half-life in vivo” value [9] was 5.979 ± 0.034 h, the “total protein half-life in vivo” value [10] was 3.91 ± 0.59 h and the “total protein half-life in vivo” value [11] was 6.58 ± 1.2 h.
With “MRFMQRSKDSLAKWLSAILPVVIVGLVGLFAVTVIRDYGRASEADRQALLEKGNVLIRALESGSRVGMGMRMHHVQQQALLEEMAGQPGVLWFAVTDAQGIIILHSDPDKVGRALYSPDEMQKLKPEENSRWRLLGKTETTPALEVYRLFQPMSAPWRHGMHNMPRCNGKAVPQVDAQQAIFIAVDASDLVATQSGEKRNTLIILFALATVLLASVLSFFWYRRYLRSRQLLQDEMKRKEKLVALGHLAAGVAHEIRNPLSSIKGLAKYFAERAPAGGEAHQLAQVMAKEADRLNRVVSELLELVKPTHLALQAVDLNTLINHSLQLVSQDANSREIQLRFTANDTLPEIQADPDRLTQVLLNLYLNAIQAIGQHGVISVTASESGAGVKISVTDSGKGIAADQLDAIFTPYFTTKAEGTGLGLAVVHNIVEQHGGTIQVASQEGKGSTFTLWLPVNITRKDPQG” the “total protein half-life in vivo” value [1] was 5.89 h, the “total protein half-life in vivo” value [2] was 6.11 ± 0.45 h and the “total protein half-life in vivo” value [4] was 5.27 ± 0.29 h. The “total protein half-life in vivo” value [5] was 3.57 ± 0.24 h, the “total protein half-life in vivo” value [6] was 4.91 h and the “total protein half-life in vivo” value [7] was 13.4 ± 2.7 h. For the same sequence, the “total protein half-life in vivo” value [8] was 5.12 h, the “total protein half-life in vivo” value [9] was 14.1 h and the “total protein half-life in vivo” value [11] was 11.4 ± 0.38 h.
For “MRFSHRLFLLLILLLTGAPILAQEPSDVAKNVRMMVSGIVSYTRWPALSGPPKLCIFSSSRFSTALQENAATSLPYLPVIIHTQQEAMISGCNGFYFGNESPTFQMELTEQYPSKALLLIAEQNTECIIGSAFCLIIHNNDVRFAVNLDALSRSGVKVNPDVLMLARKKNDG”, the “total protein half-life in vivo” value [1] was 3.28 ± 0.12 h, the “total protein half-life in vivo” value [2] was 2.98 ± 0.17 h and the “total protein half-life in vivo” value [4] was 3.1 h. The “total protein half-life in vivo” value [6] was greater than 8 h, the “total protein half-life in vivo” value [7] was 6.32 h and the “total protein half-life in vivo” value [8] was 2.98 h. The “total protein half-life in vivo” value [9] was 4.75 h, the “total protein half-life in vivo” value [10] was 5 h and the “total protein half-life in vivo” value [11] was 6.03 ± 0.098 h.

Source: the supplement of paper PMC11246515
